These results are taken from patent US12398178 (dated 2025).

One assay has as its target Compound 2. Put plainly: SPR (Biacore). On the technique in general: SPR reads the build-up and loss of mass on a sensor chip optically.
Assay [1] has as its target i,i+4 non-binder Linker 6. Put plainly: fluorescence polarization; xStAx41 derivative. (In general: Polarisation of emitted light reports the rotation of a fluorescent probe.)
Assay [2] deals with i,i+7 non-binder Linker 6. Put plainly: fluorescence polarization; xStAx41 derivative.
Assay [3] deals with i,i+4 non-binder Linker 1. Put plainly: fluorescence polarization; xStAx41 derivative.
Another assay addresses i,i+7 binder Linker 8. Put plainly: fluorescence polarization; xStAx41 derivative.
The target in assay [4] is i,i+4 non-binder Linker 4. As to the kind of experiment: fluorescence polarization; xStAx41 derivative.
The next assay addresses i,i+7 binder Linker 2. As to the kind of experiment: fluorescence polarization; xStAx41 derivative.
The target of assay [5] is i,i+7 non-binder Linker 5. As to the kind of experiment: fluorescence polarization; xStAx41 derivative.
The target in the next assay is i,i+4 binder Linker 6. As to the kind of experiment: fluorescence polarization; xStAx41 derivative.
In a further assay the target is i,i+7 binder Linker 9. As to the kind of experiment: fluorescence polarization; xStAx41 derivative.
The next assay concerns the target i,i+4 binder Linker 3. Put plainly: fluorescence polarization; xStAx41 derivative.
Assay [6] deals with i,i+4 non-binder Linker 2. Put plainly: fluorescence polarization; xStAx41 derivative.
In another assay the target is i,i+7 binder Linker 1. As to the kind of experiment: fluorescence polarization; xStAx41 derivative.
The target of assay [7] is i,i+4 non-binder Linker 7. Put plainly: fluorescence polarization; xStAx41 derivative.
A further assay has as its target i,i+7 binder Linker 5. As to the kind of experiment: fluorescence polarization; xStAx41 derivative.
The target in assay [8] is i,i+4 non-binder Linker 3. Put plainly: fluorescence polarization; xStAx41 derivative.
The target in assay [9] is i,i+7 non-binder Linker 4. As to the kind of experiment: fluorescence polarization; xStAx41 derivative.
Assay [10] deals with i,i+7 non-binder Linker 3. Put plainly: fluorescence polarization; xStAx41 derivative.
A further assay deals with i,i+4 binder Linker 5. Put plainly: fluorescence polarization; xStAx41 derivative.
Assay [11] has as its target i,i+7 non-binder Linker 9. Put plainly: fluorescence polarization; xStAx41 derivative.
For assay [12], the target named is i,i+4 non-binder Linker 5. Put plainly: fluorescence polarization; xStAx41 derivative.
The target of assay [13] is i,i+4 non-binder Linker 8. As to the kind of experiment: fluorescence polarization; xStAx41 derivative.
For assay [14], the target named is i,i+4 non-binder Linker 9. As to the kind of experiment: fluorescence polarization; xStAx41 derivative.
Another assay addresses i,i+7 binder Linker 3. As to the kind of experiment: fluorescence polarization; xStAx41 derivative.
The next assay concerns the target i,i+4 binder Linker 4. Put plainly: fluorescence polarization; xStAx41 derivative.
Assay [15] has as its target i,i+7 non-binder Linker 8. Put plainly: fluorescence polarization; xStAx41 derivative.
The target of another assay is i,i+7 binder Linker 7. Put plainly: fluorescence polarization; xStAx41 derivative.
The target of another assay is i,i+7 binder Linker 6. As to the kind of experiment: fluorescence polarization; xStAx41 derivative.
For the next assay, the target named is i,i+4 binder Linker 8. As to the kind of experiment: fluorescence polarization; xStAx41 derivative.
A further assay concerns the target i,i+7 binder Linker 4. Put plainly: fluorescence polarization; xStAx41 derivative.
For a further assay, the target named is i,i+4 binder Linker 9. Put plainly: fluorescence polarization; xStAx41 derivative.
The target of assay [16] is i,i+7 non-binder Linker 7. Put plainly: fluorescence polarization; xStAx41 derivative.
Assay [17] deals with i,i+7 non-binder Linker 2. As to the kind of experiment: fluorescence polarization; xStAx41 derivative.
The target of a further assay is i,i+4 binder Linker 1. As to the kind of experiment: fluorescence polarization; xStAx41 derivative.
The target in assay [18] is i,i+7 non-binder Linker 1. As to the kind of experiment: fluorescence polarization; xStAx41 derivative.
In the next assay the target is i,i+4 binder Linker 2. Put plainly: fluorescence polarization; xStAx41 derivative.
Another assay has as its target i,i+4 binder Linker 7. As to the kind of experiment: fluorescence polarization; xStAx41 derivative.

A value given as a limit tells only on which side of the number the result lay.

B1: beta-Catenin (other)
chain: HAVVNLINYQDDAELATRAIPELTKLLNDEDQVVVNKAAVMVHQLSKKEASRHAIMRSPQMVSAIVRTMQNTNDVETARCTAGTLHNLSHHREGLLAIFKSGGIPALVKMLGSPVDSVLFYAITTLHNLLLHQEGAKMAVRLAGGLQKMVALLNKTNVKFLAITTDCLQILAYGNQESKLIILASGGPQALVNIMRTYTYEKLLWTTSRVLKVLSVCSSNKPAIVEAGGMQALGLHLTDPSQRLVQNCLWTLRNLSDAATKQEGMEGLLGTLVQLLGSDDINVVTCAAGILSNLTCNNYKNKMMVCQVGGIEALVRTVLRAGDREDITEPAICALRHLTSRHQEAEMAQNAVRLHYGLPVVVKLLHPPSHWPLIKATVGLIRNLALCPANHAPLREQGAIPRLVQLLVRAHQDTQRRTSMGGTQQQFVEGVRMEEIVEGCTGALHILARDVHNRIVIRGLNTIPLFVQLLYSPIENIQRVAAGVLCELAQDKEAAEAIEAEGATAPLTELLHSRNEGVATYAAAVLFRMSED
A word on the Kd: it is a measure of binding affinity in units of concentration. In turn, B1 showed a Kd with Compound 2 of 0.45 µM. That is a sub-micromolar value.

B2: beta-catenin (other)
chain: ATQADLMELDMAMEPDRKAAVSHWQQQSYLDSGIHSGATTTAPSLSGKGNPEEEDVDTSQVLYEWEQGFSQSFTQEQVADIDGQYAMTRAQRVRAAMFPETLDEGMQIPSTQFDAAHPTNVQRLAEPSQMLKHAVVNLINYQDDAELATRAIPELTKLLNDEDQVVVNKAAVMVHQLSKKEASRHAIMRSPQMVSAIVRTMQNTNDVETARCTAGTLHNLSHHREGLLAIFKSGGIPALVKMLGSPVDSVLFYAITTLHNLLLHQEGAKMAVRLAGGLQKMVALLNKTNVKFLAITTDCLQILAYGNQESKLIILASGGPQALVNIMRTYTYEKLLWTTSRVLKVLSVCSSNKPAIVEAGGMQALGLHLTDPSQRLVQNCLWTLRNLSDAATKQEGMEGLLGTLVQLLGSDDINVVTCAAGILSNLTCNNYKNKMMVCQVGGIEALVRTVLRAGDREDITEPAICALRHLTSRHQEAEMAQNAVRLHYGLPVVVKLLHPPSHWPLIKATVGLIRNLALCPANHAPLREQGAIPRLVQLLVRAHQDTQRRTSMGGTQQQFVEGVRMEEIVEGCTGALHILARDVHNRIVIRGLNTIPLFVQLLYSPIENIQRVAAGVLCELAQDKEAAEAIEAEGATAPLTELLHSRNEGVATYAAAVLFRMSEDKPQDYKKRLSVELTSSLFRTEPMAWNETADLGLDIGAQGEPLGYRQDDPSYRSFHSGGYGQDALGMDPMMEHEMGGHHPGADYPVDGLPDLGHAQDLMDGLPPGDSNQLAWFDTDL
B2: the equilibrium dissociation constant (Kd) was more than 50 µM in assay [1]; more than 50 µM in assay [2]; more than 50 µM in assay [3]; 16.3 µM with i,i+7 binder Linker 8; more than 50 µM in [4]; more than 50 µM with i,i+7 binder Linker 2. Moreover, the Kd in assay [5] was more than 50 µM; with i,i+4 binder Linker 6, 5.6 µM; in the assay with i,i+7 binder Linker 9, 10.5 µM; in the assay with i,i+4 binder Linker 3, 7.1 µM; in assay [6] it was more than 50 µM; with i,i+7 binder Linker 1 it was 2.9 µM. Also, the Kd was more than 50 µM in assay [7]; 14.6 µM with i,i+7 binder Linker 5; more than 50 µM in assay [8]; more than 50 µM in assay [9]; more than 50 µM in [10]; 8.6 µM in the assay with i,i+4 binder Linker 5. Besides, the Kd in assay [11] is more than 50 µM; in assay [12] it was more than 50 µM; in assay [13], more than 50 µM; in assay [14], more than 50 µM; in the assay with i,i+7 binder Linker 3, 25.4 µM; in the assay with i,i+4 binder Linker 4, 10.1 µM. The Kd in [15] was more than 50 µM; with i,i+7 binder Linker 7, 0.6 µM; in the assay with i,i+7 binder Linker 6, 5.3 µM; with i,i+4 binder Linker 8, 28.7 µM; in the assay with i,i+7 binder Linker 4, 8.7 µM; with i,i+4 binder Linker 9, 2.4 µM. The Kd was more than 50 µM in [16]; more than 50 µM in assay [17]; more than 50 µM with i,i+4 binder Linker 1; more than 50 µM in assay [18]; 3.1 µM with i,i+4 binder Linker 2; 7.8 µM in the assay with i,i+4 binder Linker 7.
